US20070104676A1, “Cosmetic and/or dermatological preparations containing an extract from the seeds of plants of the genus adenanthera” (COGNIS FRANCE S.A., priority 2003, published 2007)

B1: SBTI: Reference substance (Sigma) in the plasmin inhibition test (protein, UniProt P01070 25-205, looked up)
Trypsin inhibitor A: DFVLDNEGNPLENGGTYYILSDITAFGGIRAAPTGNERCPLTVVQSRNELDKGIGTIISSPYRIRFIAEGHPLSLKFDSFAVIMLCVGIPTEWSVVEDLPEGPAVKIGENKDAMDGWFRLERVSDDEFNNYKLVFCPQQAEDDKCGDIGISIDHDDGTRRLVVSKNKPLVVQFQKLDKESL

Key:
pancreas elastase = pancreas elastase (Sus scrofa, UniProt P00772); experiment: Inhibition of elastase activity; assay type: biochemical
Experimental: In order to test the effectiveness of the plant extract in inhibiting the release of elastase, pancreas elastase (a serine protease) was investigated and, as substrate, elastin was marked with a chromogenic synthetic substrate. The system was incubated with the active principles for 30 minutes at room temperature and then, after centrifuging, the optical density of the dye was determined at 410 nm. The extracts were used in a quantity of 0.3% by weight. The results are set out in Table 1 where they are expressed relative to a control as standard (=0%); a1-antitrypsin was used as the standard.

Human plasmin = molecular target: T1, Human plasmin (Homo sapiens, UniProt P00747); experiment: Inhibition of plasmin activity (quenched fluorescent casein hydrolysis); assay type: biochemical; conditions: reference substance
T1 construct: purchased Sigma
Experimental: Method: Human plasmin obtained from Sigma was mixed with the extract in a quantity of 0.3% by weight and incubated for a few minutes at 20° C. Natural casein marked with a quenched fluorescence probe (Interchim natural) was then added. The protease-catalyzed hydrolysis degraded the quenching and produced a fluorescence signal. The proportion of hydrolyzed substrate was determined by measuring the increased green fluorescence over a period of 30 minutes. […] The inhibition of enzyme activity was evaluated by comparison with a control and a reference substance SBT1 (Sigma).

T1 sequence (P00747 581-810 limits assumed): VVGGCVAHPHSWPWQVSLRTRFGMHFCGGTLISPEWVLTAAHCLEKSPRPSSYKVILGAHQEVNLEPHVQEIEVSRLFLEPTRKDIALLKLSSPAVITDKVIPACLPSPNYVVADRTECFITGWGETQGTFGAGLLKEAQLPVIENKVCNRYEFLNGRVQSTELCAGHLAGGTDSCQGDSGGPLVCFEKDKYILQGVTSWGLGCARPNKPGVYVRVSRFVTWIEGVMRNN
T1 sequence (P00747 97-580 partner limits assumed): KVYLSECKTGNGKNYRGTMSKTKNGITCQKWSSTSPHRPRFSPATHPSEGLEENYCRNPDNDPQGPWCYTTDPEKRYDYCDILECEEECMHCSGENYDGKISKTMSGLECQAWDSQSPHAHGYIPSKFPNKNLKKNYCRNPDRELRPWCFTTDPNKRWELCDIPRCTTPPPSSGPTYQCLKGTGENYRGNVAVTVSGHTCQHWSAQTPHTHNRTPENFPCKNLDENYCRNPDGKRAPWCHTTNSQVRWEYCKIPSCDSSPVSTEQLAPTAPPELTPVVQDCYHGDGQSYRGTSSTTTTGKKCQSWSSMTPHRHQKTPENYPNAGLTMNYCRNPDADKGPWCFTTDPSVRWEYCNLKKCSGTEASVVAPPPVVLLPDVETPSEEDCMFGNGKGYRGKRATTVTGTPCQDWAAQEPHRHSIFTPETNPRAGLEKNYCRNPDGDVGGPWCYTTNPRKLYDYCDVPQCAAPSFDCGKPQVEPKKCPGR
Sequence of pancreas elastase (P00772 27-266): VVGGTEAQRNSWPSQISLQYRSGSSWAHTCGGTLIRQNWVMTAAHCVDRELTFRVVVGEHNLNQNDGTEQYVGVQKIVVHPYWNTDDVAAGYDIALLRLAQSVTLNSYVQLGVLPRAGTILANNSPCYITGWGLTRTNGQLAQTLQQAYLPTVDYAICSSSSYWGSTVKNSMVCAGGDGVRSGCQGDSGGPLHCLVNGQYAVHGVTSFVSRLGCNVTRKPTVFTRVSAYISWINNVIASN

| IC50 (elastase inhibition, standard) (pancreas elastase) | IC50 (plasmin inhibition, standard) (Human plasmin) [%] | Molecule |
| --- | --- | --- |
| IC50 = 0.13 mg/ml |  | α1-anti-trypsin: Standard used in the elastase inhibition test |
|  | 0.006 | B1 |
